Results: patent publication US20190127480A1 (Regeneron, published 2019)
Where two headings read alike, the source gives them in different places.

What was measured:
[1] = molecular target: T1, human CD3 expressed on cells (Jurkat cells; human T-cells of PBMC) (human, UniProt P09693 23-182; P20963 22-164); assay: FACS titration on Jurkat cells (CD3+ human T-cell line)
T1 construct: whole, on cells; Native CD3 on the cell surface; also called hPBMC
Protocol: (§1) FACS data was acquired using the following protocol: Cells at 2×10⁵ per well were incubated with serially diluted antibodies for 30 min on ice. Post incubation, cells were washed and secondary antibody was added and incubated for an additional 30 minutes. After incubation, cells were washed, re-suspended in cold PBS containing 1% BSA and analyzed by flow cytometry with viable Jurkat cells gated by side and forward scatters. The EC₅₀s for cell binding titration were determined using Prism software with values calculated using a 4-parameter non-linear regression analysis.

[2] = molecular target: T1, human CD3 expressed on cells (Jurkat …); assay: cell-based or functional assay
[3] = molecular target: T1, human CD3 expressed on cells (Jurkat …); assay: cell-based or functional assay; remark: listed apart in the source
[4] = molecular target: T1, human CD3 expressed on cells (Jurkat …); assay: cell-based or functional assay; remark: listed apart in the source
[5] = molecular target: T1, human CD3 expressed on cells (Jurkat …); assay: cell-based or functional assay; remark: listed apart in the source
[6] = molecular target: T1, human CD3 expressed on cells (Jurkat …); assay: FACS titration on Jurkat cells, monovalent 1-arm antibody
Protocol: as §1

[7] = molecular target: cynomolgus monkey CD3 expressed on monkey T-cells (PBMCs) (cynomolgus monkey, UniProt Q95LI5 22-198; Q95LI8 22-171); assay: cell-based or functional assay
cynomolgus monkey CD3 expressed on monkey T-cells (PBMCs), sequence (Q95LI5 22-198, chain 1 of 2): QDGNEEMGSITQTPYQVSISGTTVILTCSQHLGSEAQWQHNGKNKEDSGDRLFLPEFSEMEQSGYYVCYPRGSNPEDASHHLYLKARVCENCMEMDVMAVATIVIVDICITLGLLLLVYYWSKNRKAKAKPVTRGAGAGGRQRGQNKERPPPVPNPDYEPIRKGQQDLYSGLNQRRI
cynomolgus monkey CD3 expressed on monkey T-cells (PBMCs), sequence (Q95LI8 22-171, chain 2 of 2): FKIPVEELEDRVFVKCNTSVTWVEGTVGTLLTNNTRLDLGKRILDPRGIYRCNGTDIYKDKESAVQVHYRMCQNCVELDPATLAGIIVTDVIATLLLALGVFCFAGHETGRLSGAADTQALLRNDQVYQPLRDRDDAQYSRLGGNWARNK

T1 sequence (chain, as listed by the source, chain 1 of 4): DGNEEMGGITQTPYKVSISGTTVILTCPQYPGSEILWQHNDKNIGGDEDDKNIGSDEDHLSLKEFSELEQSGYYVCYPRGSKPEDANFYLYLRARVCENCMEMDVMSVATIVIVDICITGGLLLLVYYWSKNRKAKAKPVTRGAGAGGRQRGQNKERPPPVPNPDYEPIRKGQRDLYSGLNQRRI
T1 sequence (chain, as listed by the source, chain 2 of 4): as the sequence (Q95LI8 22-171, chain 2 of 2) above, with V5I, K15N, V20I, T32S, N33D, N34I, A64T, N74S, L83V, R141H counted along it
T1 sequence (P09693 23-182, chain 3 of 4): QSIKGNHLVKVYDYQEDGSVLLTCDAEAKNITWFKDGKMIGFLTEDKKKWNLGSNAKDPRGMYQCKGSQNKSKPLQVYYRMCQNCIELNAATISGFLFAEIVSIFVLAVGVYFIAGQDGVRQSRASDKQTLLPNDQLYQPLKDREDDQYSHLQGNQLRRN
T1 sequence (P20963 22-164, chain 4 of 4): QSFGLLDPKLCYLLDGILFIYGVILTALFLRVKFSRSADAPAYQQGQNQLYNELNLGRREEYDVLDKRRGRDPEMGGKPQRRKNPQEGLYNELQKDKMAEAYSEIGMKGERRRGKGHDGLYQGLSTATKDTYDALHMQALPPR

B1: H1H5795B (antibody, human IgG1, V domains shown)
VH: EVQLVESGAEVKKPGASVKVSCKTSGYSFIGYYIHWMRQAPGQGLEWMGWINPKSGVTNYAQRFQGRVTMTRDTSISTAYMELSRLKSDDTAVYFCARMGDGAVFDFWGQGTLVTVSS
VL: DIQLTQSPSSLSASVGDRVTITCRASQRISSFLNWYQQKPGKVPKLLIYTASNLQNGVPSRFSGTGSGTDFTLTISSLQPEDFATYYCQQSYRTPLTFGGGTKVDIKR
notes: H1H: human IgG1 Fc
[1]
  EC50: 2040 pM
[2]
  U937 Cytotoxicity Human T-cells: 67.4 pM
[3]
  EC50 [M] hPBMC Proliferation: 3.09e-12 M

B2: H1H5798B (antibody, human IgG1, V domains shown)
VH: QVQLVQSGGGLVKPGGSLRLSCAASGFTFSSYDMSWVRQAPGKGLEWVSYISSSGNTIHYADSVKGRFTISRDNSKNSLYLQMNSLRAEDTAVYYCAKAGPATVTRRYYYYYGLDVWGQGTTVTVSS
VL: DIVMTQSPSSLSASVRDRVTITCRASQRISSYLNWFQQKPGKAPKVLIYTASSLQNGVPSRFSGSGSGTDFTLTISSLQPEDFATYYCQQSYRTPLTFGGGTKVEIKR
notes: H1H: human IgG1 Fc
[1]
  EC50: 5570 pM
[2]
  U937 Cytotoxicity Human T-cells: 181 pM
[3]
  EC50 [M] hPBMC Proliferation: 2.59e-12 M

B3: H1H5801B (antibody, human IgG1, V domains shown)
VH: QVQLVQSGGGVVQPGGSLRLSCAASGFTFDDYAMHWVRQAPGKGLEWVSLISGDGGSTYYADSVKGRFTISRDNSKNSLYLQMNSLRTEDTALYYCAKDDSSSSWYYYYYGMDVWGRGTTVTVSS
VL: DIQMTQSPSSLSASVGDRVTITCRASQRISSYLNWYQQKPGKAPKVLISVASSLQSGVPSRFSGSGSGTDFTLTISSLQPEDFASYYCQQSYNTPLTFGGGTKVEIKR
notes: H1H: human IgG1 Fc
[1]
  EC50: 15500 pM
[2]
  U937 Cytotoxicity Human T-cells: 92.3 pM
[3]
  EC50 [M] hPBMC Proliferation: 1.09e-12 M

B4: H1H7269P (antibody, human IgG1, V domains shown)
VH: QVQLVESGGGLVQPGRSLRLSCAASGFKFDDYTMHWVRQGPGKGLEWVSDISWSGGSIDYTDSVKGRFSISRDNAKNSLYLQMNSLRVEDTALYYCVKDKSGYGKYSYGLDVWGQGTTVTVSS
VL: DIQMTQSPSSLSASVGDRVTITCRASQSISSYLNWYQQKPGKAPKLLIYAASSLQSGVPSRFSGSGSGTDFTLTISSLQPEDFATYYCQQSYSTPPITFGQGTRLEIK
notes: Monovalent 1-arm format: second Fab removed, only the Fc portion (CH2-CH3) expressed; human IgG1 Fc; tied by the numerical identifier; also called H1H7269B
[4]
  EC50 [M] hPBMC Proliferation: 1.15e-12 M
[5]
  U937 Cytotoxicity Human T-cells: 10.8 pM
[6]
  EC50: 1950 pM

B5: H1H7223P (antibody, human IgG1, V domains shown)
VH: QVQLVESGGGLVQPGRSLRLSCAASGFTFADYTMHWVRQAPGKGLEWVSDISWNSGSMGYADSVKGRFTISRDNAKKSLYLQMNSLRTEDTALYYCAKDGSGYGKYFFYAMDVWGQGTTVTVSS
VL: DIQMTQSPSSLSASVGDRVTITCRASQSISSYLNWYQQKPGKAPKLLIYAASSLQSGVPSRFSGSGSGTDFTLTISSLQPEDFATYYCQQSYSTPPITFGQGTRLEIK
notes: Monovalent 1-arm format: second Fab removed, only the Fc portion (CH2-CH3) expressed; human IgG1 Fc; tied by the numerical identifier; also called H1H7223B
[4]
  EC50 [M] hPBMC Proliferation: 1.07e-12 M
[7]
  EC50 [M] mfPBMC Proliferation: 6.75e-11 M
[5]
  U937 Cytotoxicity Human T-cells: 5.3 pM
[6]
  EC50: 937 pM

B6: H1H7226P (antibody, human IgG1, V domains shown)
VH: EVQLVQSGGGLVQPGRSLRLSCAASGFTFSDYTMHWVRQGPGKGLEWVSDISWNSGSKGYTDSVKGRFTISRDNAKKSLYLQMNSLRAEDTALYYCVKDGSGYGKYHFYAMDVWGQGTLVTVSS
VL: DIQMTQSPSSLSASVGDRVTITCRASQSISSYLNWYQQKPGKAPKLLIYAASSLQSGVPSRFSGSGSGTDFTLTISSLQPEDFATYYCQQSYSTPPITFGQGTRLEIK
notes: Monovalent 1-arm format: second Fab removed, only the Fc portion (CH2-CH3) expressed; human IgG1 Fc; tied by the numerical identifier; also called H1H7226B
[4]
  EC50 [M] hPBMC Proliferation: 9.52e-13 M
[7]
  EC50 [M] mfPBMC Proliferation: 2.26e-11 M
[5]
  U937 Cytotoxicity Human T-cells: 10.4 pM
[6]
  EC50: 795 pM

B7: H1H7198P (antibody, human IgG1, V domains shown)
VH: EVQLVESGGGLVQPGRSLRLSCAASGFTFADYTMHWVRQVPGKGLEWVSDISWNSGSKDYADSVKGRFTISRDNAKNFLYLQMNSLRAEDTALYYCVKYGSGYGKFYFYAMDVWGQGTTVTVSS
VL: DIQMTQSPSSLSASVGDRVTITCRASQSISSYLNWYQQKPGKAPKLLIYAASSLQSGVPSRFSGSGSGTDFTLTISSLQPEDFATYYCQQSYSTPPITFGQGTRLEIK
notes: Monovalent 1-arm format: second Fab removed, only the Fc portion (CH2-CH3) expressed; human IgG1 Fc; tied by the numerical identifier; also called H1H7198B
[4]
  EC50 [M] hPBMC Proliferation: 2.55e-12 M
[7]
  EC50 [M] mfPBMC Proliferation: 2.29e-12 M
[5]
  U937 Cytotoxicity Human T-cells: 5.21 pM
[6]
  EC50: 726 pM

B8: H1H7211P (antibody, human IgG1, V domains shown)
VH: EVQLVESGGGLVHPGRSLRLSCTASGFKFADYTMHWVRQAPGKGLEWVSDISWNSGSKGYADSVKGRFTISRDNDKNSLYLQMNSLRGEDTALYYCAKDGSGYGRFHFYAIDVWGQGTTVTVSS
VL: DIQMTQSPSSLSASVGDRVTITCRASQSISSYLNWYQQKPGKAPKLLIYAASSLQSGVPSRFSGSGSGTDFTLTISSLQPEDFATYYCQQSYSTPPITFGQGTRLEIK
notes: Monovalent 1-arm format: second Fab removed, only the Fc portion (CH2-CH3) expressed; human IgG1 Fc; tied by the numerical identifier; also called H1H7211B
[4]
  EC50 [M] hPBMC Proliferation: 2.75e-12 M
[7]
  EC50 [M] mfPBMC Proliferation: 2.81e-13 M
[5]
  U937 Cytotoxicity Human T-cells: 7.89 pM
[6]
  EC50: 701 pM

B9: H1H7203P (antibody, human IgG1, V domains shown)
VH: EVQLVQSGGGLVQPGRSLRLSCAASGFTFADYTMHWVRQTPGKGLEWVSGISWNSGSKDYADSVKGRFTISRDNAKNSLYLQMNSLRTEDTALYYCAKYGSGYGRYFFYAMDVWGQGTTVTVSS
VL: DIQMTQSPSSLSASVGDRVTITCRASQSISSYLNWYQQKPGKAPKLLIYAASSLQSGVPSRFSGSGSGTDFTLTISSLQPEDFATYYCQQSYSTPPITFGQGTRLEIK
notes: Monovalent 1-arm format: second Fab removed, only the Fc portion (CH2-CH3) expressed; human IgG1 Fc; tied by the numerical identifier; also called H1H7203B
[4]
  EC50 [M] hPBMC Proliferation: 1.64e-12 M
[7]
  EC50 [M] mfPBMC Proliferation: 4.97e-13 M
[5]
  U937 Cytotoxicity Human T-cells: 5.47 pM
[6]
  EC50: 3240 pM
